Experimental findings from patent US20190248863A1 are described below.

Positions of bridges follow the written chain, without caps; N, C: chain ends. Chains are numbered I, II in the order given. No end group written: not given here.

The test deals with human RXFP2 (human), Q8WXD0. The test can be described thus: cell-based or functional assay.
human RXFP2 (human), Q8WXD0, sequence (Q8WXD0 whole entry): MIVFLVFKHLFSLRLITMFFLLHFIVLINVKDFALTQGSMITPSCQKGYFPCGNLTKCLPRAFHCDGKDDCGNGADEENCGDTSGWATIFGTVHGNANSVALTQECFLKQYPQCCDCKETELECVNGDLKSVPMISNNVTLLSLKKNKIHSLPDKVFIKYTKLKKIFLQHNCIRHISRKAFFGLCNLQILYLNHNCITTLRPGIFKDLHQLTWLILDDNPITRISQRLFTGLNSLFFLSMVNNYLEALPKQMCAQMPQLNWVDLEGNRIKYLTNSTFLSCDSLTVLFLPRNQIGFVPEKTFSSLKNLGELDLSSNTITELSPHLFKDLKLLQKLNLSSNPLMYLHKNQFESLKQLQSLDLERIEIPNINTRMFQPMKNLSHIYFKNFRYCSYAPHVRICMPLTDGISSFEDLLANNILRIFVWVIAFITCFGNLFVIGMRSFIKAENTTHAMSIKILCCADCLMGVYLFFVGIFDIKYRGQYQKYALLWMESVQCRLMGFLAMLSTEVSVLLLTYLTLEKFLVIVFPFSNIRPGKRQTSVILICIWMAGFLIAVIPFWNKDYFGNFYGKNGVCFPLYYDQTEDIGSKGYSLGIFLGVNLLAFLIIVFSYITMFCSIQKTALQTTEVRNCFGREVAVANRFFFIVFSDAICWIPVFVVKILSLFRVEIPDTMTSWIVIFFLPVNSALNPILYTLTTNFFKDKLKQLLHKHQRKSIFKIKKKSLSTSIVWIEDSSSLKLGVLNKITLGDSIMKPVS

B1: wild-type human relaxin 2 (WT-RLX) (ligand)
chain 1: QLYSALANKCCHVGCTKRSLARFC
chain 2: DSWMEEVIKLCGRELVRAQIAICGMSTWS
modifications: disulfide I:10-I:15, I:11-II:11, I:24-II:23
In turn, B1 showed a cAMP Assay EC50 (nM), human RXFP2/CHO-K1 cells of 5.5 nM and a fold less potent than INSL3 (cAMP assay EC50, human RXFP2/CHO-K1 cells) of 10 fold.

B2: RLX-A-AQ1-20KPEG (ligand)
chain 1: XLYSALANKCCHVGCTKRSLARFC
chain 2: ASWMEEVIKLCGRELVRAQIAICGMSTWS
modifications: here or on the partner: para-acetylphenylalanine (pAcF, X) at position 1 of the A chain, linked to a 20 kDa PEG via an oxime linkage
Take B2: the Maximal cAMP stimulation by RLX-A-AQ1-20KPEG compared to WT-RLX (percent), AVG, hRXFP2 turned out to be 99%; the Potency Ratio (RLX-A-AQ1-20KPEG/WT-RLX), cAMP assay amounted to 32 fold; the RLX-A-AQ1-20KPEG Potency Ratio (hRXFP1-1.0), cAMP assay amounted to 54 fold; the cAMP Assay EC50 (nM), human RXFP2/CHO-K1 cells turned out to be 174 nM.
